{"source": "patent US20220347324A1", "about": "(Bristol-Myers Squibb, published 2022)", "binders": {"B1": {"name": "ADX_5322_A02 (designed binder)", "chain": "MGVSDVPRDLEVVAATPTSLLISWSYDGPIDRYYRITYGETGGNSPVQEFTVPPDQKTATISGLKPGVDYTITVYAVRLEEAHYNREFPISINYRTPCHHHHHH", "notes": "C-terminus NYRTPCH6"}, "B2": {"name": "64Cu-E01-NODAGA (designed binder)", "chain": "GVSDVPRDLEVVAATPTSLLISWRAQLSPSFYYRITYGETGGNSPVQEFTVPNDVMTATISGLKPGVDYTITVYAVTTHGVYFYSPISINYRTPC", "modifications": "C-terminal cysteine linked by maleimide to NODAGA chelating 64Cu", "notes": "E01 with C-terminal PC (ADX_5417_E01 w/ N leader and modified C-terminus); also called 64Cu-E01 anti-PD-L1 Adnectin"}, "B3": {"name": "64Cu-A02-NODAGA (designed binder)", "chain": "GVSDVPRDLEVVAATPTSLLISWSYDGPIDRYYRITYGETGGNSPVQEFTVPPDQKTATISGLKPGVDYTITVYAVRLEEAHYNREFPISINYRTPC", "modifications": "C-terminal cysteine linked by maleimide to NODAGA chelating 64Cu", "notes": "A02 with C-terminal PC; also called NODAGA-64Cu-labeled A02 anti-PD-L1 Adnectin"}, "B4": {"name": "[18F]-A02-4PEG-DBCO-FPPEGA (designed binder)", "chain": "B3 chain", "modifications": "C-terminal cysteine linked to Maleamide-DBCO-FFP(18F)", "notes": "also called 18F-DBCO-A02 anti-PD-L1 Adnectin; ADX_5322_A02-Mal-DBCO-FFPF18"}}, "key": {"[1]": {"target": "T1, human PD-L1 expressed on cells (hPD-L1-positive L2987 cells, L2987 xenografts, human lung tumor tissue) (human, UniProt Q9NZQ7 19-290)", "T1 construct": "whole, on cells; also called hPD-L1(+) L2987; PD-L1 positive cells L2987", "test": "cell binding to human PD-L1 positive L2987 cells; Adnectin marked (Cys-Capped)"}, "[2]": {"target": "T1, human PD-L1 expressed on cells …", "test": "radiotracer cell binding, 1 h on ice, gamma counter", "experimental": "After the incubation period, cell samples were centrifuged at 200×g and the supernatant was discarded. Cell pellets were resuspended in 1 mL PBS+0.5% BSA and the wash procedure repeated for a total of 3 washes. Following the final wash, cells were again centrifuged at 200×g and the supernatant was discarded. The radioactivity of the remaining cell pellets was then measured by gamma counter."}, "[3]": {"target": "T1, human PD-L1 expressed on cells …", "test": "in vivo PET in mice with bilateral xenografts, last 10 min of a 2 h scan", "experimental": "(§1) A 10-minute transmission image was first acquired using a ⁵⁷Co point source for the purpose of attenuation correction of the final PET images. Following the transmission scan, radiotracer solutions were administered via the previously installed tail vein catheters and a 2 hour emission image was acquired. […] All injections were formulated in 200 μL saline prior to injection. Exact injected doses were calculated by taking direct measurements of the formulated dose and subtracting the radioactivity remaining in the syringe and the tail vein catheter.\n(§2) Images were reconstructed using a maximum a posteriori (MAP) algorithm with attenuation correction using the collected transmission images and corrected for radioisotope decay. In the final images, regions of interest (ROIs) were drawn around the tumor boundary using ASIPro software (Siemens Preclinical Solutions). Time-activity curves were calculated for each ROI to yield a quantitative view of radiotracer within the tumor volume over the course of the 2 hour emission image. For final comparison, individual time-activity curves were normalized based on the injected radiotracer dose for each specific animal. Radiotracer uptake was compared across tumors using the final 10 minutes of each time-activity curve (1 hour 50 minutes-2h post-radiotracer injection)."}, "[4]": {"target": "T1, human PD-L1 expressed on cells …", "test": "in vivo PET in mice, co-injected with 3 mg/kg unlabeled A02 Adnectin as competitor", "experimental": "as §1, §2"}, "[5]": {"target": "T1, human PD-L1 expressed on cells …", "test": "in vivo PET in mice with bilateral xenografts", "excerpt": "Briefly, nude mice were subcutaneously implanted bilaterally with HT-29 and L2987 cells. Once tumors reached approximately 200-300 mm³, animals were selected for imaging. Mice were anesthetized with 2% isoflurane in oxygen and placed onto the imaging bed of a Focus 120 PET imaging system (Siemens Preclinical Solutions). […] A 10-minute transmission image was then collected using a ⁵⁷Co point source for use as attenuation correction. Images were reconstructed using a 3D maximum a posteriori algorithm with attenuation correction using AsiPro software (Siemens Preclinical Solutions)."}}}
{"binder": "B1", "values": [{"measurement": "EC50", "setting": "[1]", "result": 0.43, "unit": "nM"}]}
{"binder": "B2", "values": [{"measurement": "fold cell associated radioactivity, hPD-L1-positive L2987 cells against hPD-L1-negative HT-29 cells", "setting": "[2]", "result": 44.6, "unit": "fold"}]}
{"binder": "B3", "values": [{"measurement": "radiotracer uptake, hPD-L1(+) L2987 xenografts against hPD-L1(-) HT-29 xenografts", "setting": "[3]", "result": 3.05, "unit": "fold"}, {"measurement": "radiotracer uptake, hPD-L1(+) L2987 xenografts against hPD-L1(-) HT-29 xenografts, with cold competitor", "setting": "[4]", "result": 1.04, "unit": "fold"}]}
{"binder": "B4", "values": [{"measurement": "maximum radiotracer uptake ratio, hPD-L1(+) L2987 against hPD-L1(-) HT-29 xenografts", "setting": "[5]", "result": 3.53, "unit": "ratio"}]}
